# From the domain aggregation screens of Martell et al. (2025)
# Assay: soluble fraction after stress (log2 fold change); higher = more stays soluble; pooled small domains, quantitative proteomics
# Conditions: stress: 75 degC
# 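Note: 20 min heating vs room temperature control held 20 min.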
row,Sequence,soluble fraction (log2)
1,HMDGVLVYKEGMTVADMATGLGKTIAQVVMKLMQLGIMANQNQSVDRETVELVALDFGYELKD,-2.27
2,HMDGVSAEAVKSHIKTLIDGEGAKILSDDTLVDLLNAKGFDIARRTVAKYREAMGIGSSVQRRRQKKMG,0.00787
3,HMDGYLQLASKKNELITQLKTPPKPKRLFKDFEDRVYLITEYKVFVVSIFQNEFRLRPVNKDDFYRYTT,0.293
4,HMDGYTAVDKAVSDQYYTKENQLYFVSMGNFFSLGAKKIEGADISSFQILTTEYARDLQHLYFNGKV,-0.224
5,HMDHFFSKYDSIVNHTVQKKETLFGISKKYGLTINEVIKFNPGIQIDKLKRRSVLIIPLMKKN,-1.07
6,HMDHKSALQELLAPRGLQPSYRLVEEAGPAHARVFTSEVSVDGVARGSGTGTTIKMSEQAAAREALASLG,0.249
7,HMDHKSQLQEWAQSTLGETPRYVTIAETGPDHDKELTVELIIGRKSYSIAKGKSKKQAEQSAARIALGLLM,-1.99
8,HMDHKSSYWSVKEANLFPELLKQFGSQWSLISDKLGTKSTTMVRNYYQRNAAQLGWKSVVEEADFKRNA,-0.585
9,HMDHTYKHIELTGSSEKGIEEAVQNALAKASESVQNMRWLEVTDTRGHIEDGRVAHWQVTVKVGFTL,0.213
10,HMDHVEDRMVLEVVLKKLTEEERRIVMLHAVSGLKHREIAKALDIPLSTVLSKYKRTLKKLEAYLMEME,-1.72
11,HMDIADKLTKREFEIFIAIAMNKSRFDIANELGLSAKTVSNGLTVIKRKLNAVPSQFSAIAAKHGYIG,-2.68
12,HMDIAYFSNAELNDAFIQFLNMRQEAGKQLNGYQIQILTEKLERVADTDEDRISAVKNAIAGGWSNFYPPK,-0.607
13,HMDIDASEVRGIISQYINEPDGRVSYILETIQKKYRYLPEEAIRIVAQELEVPLTQLFGVATFYAAFSL,0.188
14,HMDIDLNTIKKITLDDIHAFLSYLTTTYHSKAATRARKASSIRVFFNYLSAKANLIEVNPAQNLETPKLD,0.165
15,HMDIEELLSRSTDRLSRQTEIRRLLADAQGRPNISSLARRFKVARRTVIRDLQELIRRGEVPPEIYPK,-1.1
16,HMDIEFSDELRTFIDEWSKKEGGLVMMLHRIQNEYGFIPRTAAEKLSLISGIPLARIYGVITFYHFFKT,-0.499
17,HMDIGNKIKELRTEQKMTQSDLAERLGVTKSSISSYENGSRLPSYDILLKIARIFKVSTDILLG,-1.47
18,HMDIGTRQRIIAAAMELFRQKGMDGMSMRELAERAGVNKGLLHYYFTTKEAIFREVFVHQVEM,-0.084
19,HMDIIIEEGIDESLSTDDAILDLLGRASDAFSNAQKALLEGDLGSYQKLIEQAERLVKKATELLGENN,-0.377
20,HMDIMNNILINRIKKILTEQNMSKADLSRLTGISNSSLSEYLNGKYEPKQDKIALIAKALHVSPAWLMGF,-1.22
21,HMDINNTNFSRDVDNLLQNEEFIKWRIFRTKEWEDYWENFRKENPHMEDALQEAISRFNAVK,0.264
22,HMDINVDILPLLKTMTDTLRKVIELDIPFLKDARVQRVNSLDELLLRADITTAEKFRKVFEAYQIEADFGK,-0.976
23,HMDIPDIGHNVRIEVDGHNGKTTHEGIILHPAAPNHITIKLANGYNASYKLEEIINIEILGELGDDSKI,-0.136
24,HMDIPITFEQLPAKAQAFVKQYFKIEEIASVWRDDDIHDQDYKVYFNDGSEIEFYANGDWEEV,-0.827
25,HMDIPTSAEAVRAYLASGFIKGIGEATARMLVDKFGAETLEIIKTEPMKLTKISGIGPKKAKMIHESYLEK,0.12
26,HMDIRLMPGTVLTREYQGIEHRVTVAQDGQYEFEGRRYPSLSMIAREITGTRWSGPLFFGVK,-1.09
27,HMDISEIEKRLLDFLEMPRSRKEIAEHLGIRTISYAIQTYITPLIDKKLVKMTIPESPRSHSQQYVRIN,-1.92
28,HMDISRMNLSQTERAVLSVLDSQPLHTEEIIASADLRAGAIHSALISLQLKGLIKQLPGNLYVK,-0.78

row,Sequence,soluble fraction (log2)
1,HMDITKPKISFEPGEMVRVVDGPFNDFSGVVEEVNYEKSKVRVAVLIFGRSTPVELQFNQIEK,-1.37
2,HMDITTIIADVPGPKTQIKVDIKNTSLHIFGGMNFKKEIDIGDNKEIINIKYINGTLTVKLKT,0.231
3,HMDIVGAINKIESMKQDRYLAMHPYSITHSADGYYRTYLPADDGKRKQIKKKSKSDLEKVVIDYWTKRS,-0.242
4,HMDIVKVYTTARAGETLASVAKRTGVDVARLAQWNDIPLKRAKQKLKTGKALALWVQREHASAYSNAPP,-1.78
5,HMDIVQLSEKINVMKMEIPAQAIGKTVLEVNFRARFDLNIIAIENGGKLVEVIKPDYVFREGDILFLSGS,-3.76
6,HMDIYENIDKELSKQGKSRRKLAIAAGIPPSTFQSMMERKRGLSVENLRKIAEVLNLKWYDLL,-0.985
7,HMDIYKKFIIPATYFGSRLDHVLSELLPELSRSKIQNMIKQNLVMINGNHAAQKQKVVGDEEIIIKDI,-0.483
8,HMDKAALGQKLRQARLDKGYTQQSLSEKADIGEVYLSEIERGLKMPSMNLFIKLITALDISADYILR,-2.94
9,HMDKDTFGEFENVKLTEEEYNKLVEKLGENNTKLMIEELSTGIASKGYKYKSHYATILSWSRRRVTKLQER,0.0858
10,HMDKEIKILKEKRLDDVQQAIRELSPQKRRVVEMKLYHNSTNQEVADKLAISVNTVKSLYTSALHDLRRIL,-0.953
11,HMDKESQTMFRLLTGVSGVGPKVGLAILSVLSPDRVVLAISAGDHKAFTAASGVGPKLGQRIVLELKDKVG,-3.07
12,HMDKEVLYVTVNDKKVKLDGKNHIFIDIFNYIDFDIKKPNGSIVLKLNGKNAGYMDEIKDGDKIEIYWDK,-0.535
13,HMDKEVMEAVLRILYDDDFNPDQRDAILYFFVQELDQRTISEITGAKIGTVKKRIHDGLKKLRQKLAKEDL,-2.04
14,HMDKGEQILQQALDKLPPKQRQVFEMRYFDEMPYREIATITETSEGALKASYHHAVKKIQQYISHL,-0.604
15,HMDKGQRGWINLVSVPTARVIIDGYDTGHETPLYGYEVERGKRKVTLISLDGTYERTYEIRIEPGTTTRVR,-0.779
16,HMDKIEVVEVDMSKPYEDMTVTELQNVILDKLASNGPVTNQMKKDVSENIYHDSLVNWAKSF,-0.0122
17,HMDKIYVYTTRGQVIELPRGSTAIDFAYKIQTDIGNMIIAAIVNDKLVDANYVLHNKDRVKIVTS,-2.57
18,HMDKLNKELVSRMMDDAAWKELSKDFPWTEQLLEKYMNYVDWKEISRNYNVVWTKSLLEKFKHRLDWHE,-2.32
19,HMDKMIFFKNKENNDDNQLVKIGALLIHAAKIDEDFSQEEENIIKQTLINFGAGNKNINEIIEKAKKME,0.0233
20,HMDKMVAVPNVRGIEASEAEATLIAQGLFVEVEKSDSEDANVAYGEVYAQTPKAGNRVEEGTTITIKVRTE,-0.0615
21,HMDKNNLHSVLQDVPGIGPKRMKELMRAFGSVEGMKKAGLEELAAVKGMNHKAAEALIQFFR,0.163
22,HMDKQGGWLTMAEAAEKLGVTHHVIRRLIKEKILPAEQVMRHAPHQIRIVDLESDAVAEALRHR,-0.356
23,HMDKVVGSAGDVTSRITANSGEVKIDGQIWQARSYDETIAIEAGEKIEVFDLDGITLIVYPI,-0.833
24,HMDLAENWKDDADITLAEYNAIRSRYKPGKLHRDTEFMIARDMLIRPETVLAIAHSRFSNVHTHPV,-0.787
25,HMDLDEELDFLSDADESATKLDLARAYIDMGDKDGARDILAEVLEEGRSEQKREAQALLDSI,0.249
26,HMDLDPVEKLHLLSQLYVGQLKGSFVVKEKNQKTTIIGEVRELSHQTLSIRTNEGYRLIEVADILEIRLWE,-0.216
27,HMDLDYSGIMNVLNQKYHITFYNNKKIQNLMPKLMIIMGYNSIINEIGHSKSLKALINSFEEKLKSYILT,-3.19
